Tested on: LS174T cells
Assay: Apoptosis, Caspase-Glo 3/7 assay
Format: cell-based, human
Conditions: 50 nM recombinant TRAIL, 2 hrs

B1: TRAIL: recombinant TRAIL (R&D Systems), positive control for apoptosis (protein, UniProt P50591 1-281, looked up)
Tumor necrosis factor ligand …: MAMMEVQGGPSLGQTCVLIVIFTVLLQSLCVAVTYVYFTNELKQMQDKYSKSGIACFLKEDDSYWDPNDEESMNSPCWQVKWQLRQLVRKMILRTSEETISTVQEKQQNISPLVRERGPQRVAAHITGTRGRSNTLSSPNSKNEKALGRKINSWESSRSGHSFLSNLHLRNGELVIHEKGFYYIYSQTYFRFQEEIKENTKNDKQMVQYIYKYTSYPDPILLMKSARNSCWSKDAEYGLYSIYQGGIFELKENDRIFVSVTNEHLIDMDHEASFFGAFLVG
apoptosis (caspase 3/7), positive control: large increase in apoptosis
